According to US5910570A, “Cloned DNA encoding a UDP-GalNAc: polypeptide N-acetylgalactosaminy-ltransferase” (Pharmacia & Upjohn Company, priority 1997, dated 1999):

T1: bovine colostrum GalNAc-transferase (Bos taurus, UniProt Q07537)
T1 construct: from tissue; host or cells: bovine colostrum
T1 sequence (Q07537 41-559 limits assumed): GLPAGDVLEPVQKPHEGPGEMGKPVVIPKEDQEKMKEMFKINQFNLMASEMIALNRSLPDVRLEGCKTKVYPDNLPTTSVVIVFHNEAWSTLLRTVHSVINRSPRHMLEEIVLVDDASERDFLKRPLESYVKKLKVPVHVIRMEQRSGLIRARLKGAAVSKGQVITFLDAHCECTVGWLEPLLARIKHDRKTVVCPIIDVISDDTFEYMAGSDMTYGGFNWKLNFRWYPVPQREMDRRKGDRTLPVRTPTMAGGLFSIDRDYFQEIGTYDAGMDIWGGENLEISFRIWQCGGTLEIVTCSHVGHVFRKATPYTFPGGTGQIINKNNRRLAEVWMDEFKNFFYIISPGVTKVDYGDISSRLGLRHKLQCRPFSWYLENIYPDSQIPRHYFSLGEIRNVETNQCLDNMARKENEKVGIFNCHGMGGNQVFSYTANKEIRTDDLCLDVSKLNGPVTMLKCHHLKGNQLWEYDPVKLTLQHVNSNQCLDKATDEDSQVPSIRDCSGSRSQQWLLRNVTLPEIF


Key:
[1] = target: T1, bovine colostrum GalNAc-transferase; assay: Transfer of N-acetylgalactosamine to protein acceptors; format: biochemical; conditions: for Product formed, Native: native acceptor 65 μM; for Product formed, Native / Product formed, Reduced and carboxymethylated: enzyme approx. 65 mU/ml; for Product formed, Reduced and carboxymethylated: reduced and carboxymethylated acceptor 65 μM
Experimental: The above conclusions and the predictions of the specificity algorithm are validated experimentally by studying the ability of bovine colostrum GalNAc-transferase to transfer N-acetylgalactosamine to a variety of acceptors, both native proteins and synthetic acceptor peptides. The transfer of N-acetylgalactosamine to protein acceptors is assayed as described by Elhammer and Kornfeld, 1986, with minor modifications. The concentration of UDP-GalNAc is saturating in all assays; a Km of 8 μM is reported for bovine colostrum GalNAc-transferase (Elhammer and Kornfeld, 1986).
The transfer of N-acetylgalactosamine to protein acceptors was assayed
under standard conditions (see Material and Methods). The acceptor
concentration was 65 μM, the enzyme concentration approximately 65
mU/ml and assay time was 60 minutes. The transfer to both native and
reduced-carboxymethylated acceptors was assayed.

bovine apomucin = assay: Specific activity of the purified enzyme preparation using bovine apomucin as acceptor; format: biochemical
Experimental: The standard assay for UDP-GalNAc:polypeptide, N-acetylgalactosaminyltransferase activity during purification contained the following components in a final volume of 80 μl: 50 mM Imidazole pH 7.2, 10 mM MnCl2, 0.5% Triton X-100, 15 μM UDP-GalNAc, UDP[1-^3 H-]GalNAc (27,000 cpm/assay), 0.15 mg/ml apomucin and varying amounts of enzyme (see individual experiments). The reaction mixture is incubated at 37° C. for 5-10 minutes (see individual experiments) and the reaction product is TCA precipitated and radioactivity measured as described. Assays for activity in lysates from Spodoptera frugiperda cell line 9 (hereinafter referred to as Sf9 cells) are carried out as described by Thomsen et al., (1990).

Molecule | transfer rate, times slower as compared to myelin basic protein ([1]; denatured (reduced and carboxymethylated) acceptor) [times] | Product formed, Native ([1]; 60 minutes) [nmol/min/mg] | Product formed, Reduced and carboxymethylated ([1]; 60 minutes) [nmol/min/mg] | Product formed, column Reduced and carboxymethylated (acceptor not reduced and carboxymethylated in this experiment) ([1]; footnote a: not reduced and carboxymethylated, 65 μM, 60 minutes) [nmol/min/mg] | specific activity of the purified enzyme preparation (bovine apomucin)
GalNAcTs: secreted, soluble recombinant form of bovine GalNAc-transferase expressed in Sf9 cells (protein) DPSPALEPVQKPHEGPGEMGKPVVIPKEDQEKMKEMFKINQFNLMASEMIALNRSLPDVRLEGCKTKVYPDNLPTTSVVIVFHNEAWSTLLRTVHSVINRSPRHMLEEIVLVDDASERDFLKRPLESYVKKLKVPVHVIRMEQRSGLIRARLKGAAVSKGQVITFLDAHCECTVGWLEPLLARIKHDRKTVVCPIIDVISDDTFEYMAGSDMTYGGFNWKLNFRWYPVPQREMDRRKGDRTLPVRTPTMAGGLFSIDRDYFQEIGTYDAGMDIWGGENLEISFRIWQCGGTLEIVTCSHVGHVFRKATPYTFPGGTGQIINKNNRRLAEVWMDEFKNFFYIISPGVTKVDYGDISSRLGLRHKLQCRPFSWYLENIYPDSQIPRHYFSLGEIRNVETNQCLDNMARKENEKVGIFNCHGMGGNQVFSYTANKEIRTDDLCLDVSKLNGPVTMLKCHHLKGNQLWEYDPVKLTLQHVNSNQCLDKATDEDSQVPSIRDCSGSRSQQWLLRNVTLPEIF | – | – | – | – | approximately 2,160 U/mg protein
Bovine rhodanese: cytoplasmic protein with predicted glycosylation sites, tested as acceptor (protein) VHQVLYRALVSTKWLAESVRAGKVGPGLRVLDASWYSPGTREARKEYLERHVPGASFFDIEECRDKASPYEVMLPSEAGFADYVGSLGISNDTHVVVYDGDDLGSFYAPRVWWMFRVFGHRTVSVLNGGFRNWLKEGHPVTSEPSRPEPAIFKATLNRSLLKTYEQVLENLESKRFQLVDSRAQGRYLGTQPEPDAVGLDSGHIRGSVNMPFMNFLTEDGFEKSPEELRAMFEAKKVDLTKPLIATCRKGVTACHIALAAYLCGKPDVAIYDGSWFEWFHRAPPETWVSQGKGGKA | – | < 0.1 | 3.3 | – | –

The next lines start with results.

transfer rate, times slower as compared to myelin basic protein ([1]; denatured (reduced and carboxymethylated) acceptor) [times] | Product formed, Native ([1]; 60 minutes) [nmol/min/mg] | Product formed, Reduced and carboxymethylated ([1]; 60 minutes) [nmol/min/mg] | Product formed, column Reduced and carboxymethylated (acceptor not reduced and carboxymethylated in this experiment) ([1]; footnote a: not reduced and carboxymethylated, 65 μM, 60 minutes) [nmol/min/mg] | Molecule | specific activity of the purified enzyme preparation (bovine apomucin)
35 | < 0.1 | 0.6 | – | Subtilisin: bacterial protein tested as acceptor (protein, UniProt P00782 108-382, looked up) Subtilisin BPN': AQSVPYGVSQIKAPALHSQGYTGSNVKVAVIDSGIDSSHPDLKVAGGASMVPSETNPFQDNNSHGTHVAGTVAALNNSIGVLGVAPSASLYAVKVLGADGSGQYSWIINGIEWAIANNMDVINMSLGGPSGSAALKAAVDKAVASGVVVVAAAGNEGTSGSSSTVGYPGKYPSVIAVGAVDSSNQRASFSSVGPELDVMAPGVSIQSTLPGNKYGAYNGTSMASPHVAGAAALILSKHPNWTNTQVRSSLENTTTKLGDSFYYGKGLINVQAAAQ | –
– | 22.2 | – | 21.3 | Myelin basic protein: efficient acceptor for GalNAc-transferase, included as a positive control (protein, UniProt P02686 1-304, looked up) Myelin basic protein: MGNHAGKRELNAEKASTNSETNRGESEKKRNLGELSRTTSEDNEVFGEADANQNNGTSSQDTAVTDSKRTADPKNAWQDAHPADPGSRPHLIRLFSRDAPGREDNTFKDRPSESDELQTIQEDSAATSESLDVMASQKRPSQRHGSKYLATASTMDHARHGFLPRHRDTGILDSIGRFFGGDRGAPKRGSGKDSHHPARTAHYGSLPQKSHGRTQDENPVVHFFKNIVTPRTPPPSQGKGRGLSLSRFSWGAEGQRPGFGYGGRASDYKSAHKGFKGVDAQGTLSKIFKLGGRDSRSGSPMARR | –
